Source: PMC11543664

Columns and labels:
[1] = molecular target: DosP^WT (wild-type full-length DosP, tag-free after TEV cleavage) (Escherichia coli); assay: cryo-EM structure
[2] = molecular target: DosP^FLAG-R97A (full-length DosP with R97A and three copies of the FLAG motif on its C-terminus) (Escherichia coli); assay: cryo-EM structure

| stoichiometry N [1] | stoichiometry N [2] | Substance |
| --- | --- | --- |
| 2 | – | DosP^WT (wild-type full-length DosP, tag-free after TEV cleavage) (enzyme) |
| – | 2 | DosP^FLAG-R97A (full-length DosP with R97A and three copies of the FLAG motif on its C-terminus) (enzyme) |
